Assay results taken from IntAct's records for PubMed 18256285.

Biological target: sdcb1_human SDCBP (UniProt O00560)
Sequence of UniProt O00560 (O00560 whole entry): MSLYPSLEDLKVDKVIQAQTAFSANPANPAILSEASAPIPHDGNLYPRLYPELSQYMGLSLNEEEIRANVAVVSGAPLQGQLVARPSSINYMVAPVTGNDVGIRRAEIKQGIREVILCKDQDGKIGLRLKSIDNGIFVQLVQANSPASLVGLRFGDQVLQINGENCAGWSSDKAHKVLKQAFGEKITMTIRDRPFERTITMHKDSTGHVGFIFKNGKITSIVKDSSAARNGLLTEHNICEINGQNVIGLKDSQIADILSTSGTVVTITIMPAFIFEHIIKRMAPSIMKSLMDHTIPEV

Row | effect of a mutation on the interaction | Substance
1 | disrupting interaction | Frizzled-7 (Homo sapiens) (from UniProt O75084) T572A;V574A
2 | disrupting interaction | Frizzled-7 (Homo sapiens) (from UniProt O75084) T572A
3 | decreasing interaction | Frizzled-7 (Homo sapiens) (from UniProt O75084) V574A
